Reference: the supplement of paper PMC9170038

System: MS2 coat protein
Test: apparent KD of MS2 coat protein; designed switch direction (-1 OFF switch, 1 ON switch): -1; higher = weaker reporter binding
Outline: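 On Illumina chips, designed RNA switches with common flanks were made by stalled E. coli RNA polymerase. Titrations with SNAP-549-labelled MS2 coat protein, doubling from 0.7 or 1.5 nM to 3 µM, were done with no input, with 200 uM small-molecule ligand, or with an oligonucleotide input. Apparent KD is the median per design over clusters, from curve fits of normalised cluster fluorescence.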

[1] = input ligand: microRNA oligo, concentration not stated
[2] = Eterna round: R95, input ligand: FMN 200 uM
[3] = Eterna round: R95, input ligand: microRNA oligo, concentration not stated
[4] = Eterna round: R95, input ligand: none

Sequence | apparent KD of MS2 coat protein (input ligand: FMN 200 uM) [nM] | apparent KD of MS2 coat protein [1] [nM] | apparent KD of MS2 coat protein (input ligand: none) [nM] | apparent KD of MS2 coat protein [2] [nM] | apparent KD of MS2 coat protein [3] [nM] | apparent KD of MS2 coat protein [4] [nM]
ACAUGUAUUGCAGGAUAUGGGACACAUGAGGAUCACCCAUGUGACUACAUGUAAUGCCACGGGUCUCAGAAGGGUAUGUACAUG [Ex NG2 #42] (Eterna round: R96, puzzle: Exclusion NG 2) | 81.5 | 22.9 | 31.3 |  |  | 
UGGCUACAUGAGGAUCACCCAUGUCAGGAUAUGCCGUUGAAUUGACAUCGACGUACGGGUAGAAGGGACUGCGU [1st #10] (Eterna round: R97, puzzle: Exclusion 1) | 50 |  | 41.6 |  |  | 
AGUAACUAUCACGAAAGUGAUAGUUACACAAGCAGUGAAACAUGAGGAUCACCCAUGUCCUCAUUUGCUCGUCUUAU [Sensor 3 - 25] (puzzle: Sensor v3, turn-off variant 2) |  |  |  | 53.1 | 390 | 52.2
AGAUUAAUAGUAAGGAUAUGAUGCAGGAAACUGCGUCAGAAGGUACAUGAGGAUCACCCAUGUUAAACUAAUUU [Explosion 7 - Jieux - Brourd's mod of Exclusion 4] (Eterna round: R97, puzzle: Brourd's mod of Exclusion 4) | 17.4 |  | 15 |  |  | 
GUAAUUAAUGUAGGAUAUGCAAGGCGAAACAUGAGAGAAGGCCAUGUGGAUCACCCAUGUAAUGCGGUCUGCGUACAGAUCGCU [salish99_ExNG1_r4_003] (Eterna round: R96, puzzle: Exclusion NG 1) | 38 | 16.1 | 65.5 |  |  | 
ACGAUGACAGAAAGAUGUCAAAAGACAUGAGGAUCACCCAUGUAGGAUAUGGCUACGAAAAGUAGUCAGAAGGACAUGUCAUCA [Omei Exc(NG) 3 Av1] (Eterna round: R96, puzzle: Exclusion NG 3) | 16.2 | 10.6 | 13.8 |  |  | 
AGACGUGCAGUGCUCCUCCACAUGAGGAUCACCCAUGUCACUGAGGAUAUCUGCAGGUAACUGCUGGAGAAGGCAGAAAGAAUG [Atrien] (Eterna round: R96, puzzle: Exclusion NG 3) | 81.9 | 22.1 | 29.5 |  |  | 
GGUCAGAUGGUAGGAUAUCCAUAUCGAGUGACCCUUUCAUAACAUGAGGAUCACCCAUGUCGGUGGGAGAAGGGCUGUACGGCG [salish99_ExNG02_R04_021] (Eterna round: R96, puzzle: Exclusion NG 2) | 34.8 | 19.1 | 43.3 |  |  | 
GAAAAGGUAGGAUAUACGAAAAAAAAGGGUAAAAAAAAAACACAUGAGGAUCACCCAUGUAGAAGGACCAAAAG [salish99_ex2_r3_062] (puzzle: Exclusion 2) |  |  |  | 44.4 | 32.4 | 34
UUAACAUGCUGGUGAUCAUACAUGAGGAUCACCCAUGUAACAAGCUUUUUGUUCGUCUUAAUUUAAUUGAUUACUAG [Stov1/8-B1] (Eterna round: R97, puzzle: Sensor, turn-off variant 1) | 188 |  | 248 |  |  | 
GGUUGGCGAGGAUAUACAUGAGGAUCACCCAUGUGAGAGAGAAAAGUGAGGAAGAAAAGUAGAAGGCGCUGACG [salish99_ex3_r3_003] (puzzle: Exclusion 3) |  |  |  | 97.3 | 48 | 36.1
CCGGGCCCGGGAGGAUAUACAUGAGGAUCACCCAUGUGGGCCCGGGCCCGCGGGCCCGGGCCCAUGUAGAAGGCCCGGGCCCGG [-64.8, -64.2 kcal, A 15%] (Eterna round: R96, puzzle: Exclusion NG 2) | 50 | 36.4 | 20.4 |  |  | 
CCUCCCGCCGUCAGGAUAUGCCGUACCGCUGCGCUACAGAAGGCACUUGAGGAUCACCCAAGUACCCGUGAGGC [salish99_bmod_ex4_r4_010] (Eterna round: R97, puzzle: Brourd's mod of Exclusion 4) | 16.5 |  | 15.7 |  |  | 
UAUUAGCAAGCGAGUGGGUACAUGAGGAUCACCCAUGUGCUCGUCUUAUAAGGUACUGUGACGAAAGUCACGGUACC [Eli 91 v33] (Eterna round: R97, puzzle: Sensor, turn-off variant 1) | 16.1 |  | 13.4 |  |  | 
AGGUCACAUGAGGAUCACCCAUGUGAGGAUAUAGACUCAAGAGCUUCGGCUCUCAAGUCUAGAAGGCGCUAUGA [EX1 #50] (Eterna round: R97, puzzle: Exclusion 1) | 26.5 |  | 28.5 |  |  | 
UUAAAUCAUGUAGGAUAUGCGUGGCGAAGCUAUGCAGAAGGACAUGAGGAUCACCCAUGUGCUUCCGUCUGCGUACAGAUGGUA [JL ENG1 1.13] (Eterna round: R96, puzzle: Exclusion NG 1) | 315 | 52.7 | 62.5 |  |  | 
GCCUUAUCCGUCAGGAUAUACAGCCGCUCCUUGUUGUAGAAGGGACAUGAGGAUCACCCAUGUACGUACCAUUG [alecazam5] (Eterna round: R97, puzzle: Brourd's mod of Exclusion 4) | 25.4 |  | 24.7 |  |  | 

Sequence | apparent KD of MS2 coat protein (input ligand: FMN 200 uM) [nM] | apparent KD of MS2 coat protein [1] [nM] | apparent KD of MS2 coat protein (input ligand: none) [nM] | apparent KD of MS2 coat protein [2] [nM] | apparent KD of MS2 coat protein [3] [nM] | apparent KD of MS2 coat protein [4] [nM]
UAAUUGUGAGGAUAUCUGGCUUCGAUCGUGAGAUCGAGGCUAGAGAAGGCACAUGAGGAUCACCCAUGUUCCUU [jl-ex4-4.10 salish99 mod] (Eterna round: R97, puzzle: Exclusion 4) | 85.2 |  | 21.5 |  |  | 
CUGGUCCGAGGAUAUAUUAUGUGAUACAUGAGGAUCACCCAUGUAAUAUGAUGGAAGUAAAUAGAAGGCGGACUAG [Mat - Exclusion 5 - JL mod - D46] (puzzle: Exclusion 5) |  |  |  | 42.5 | 55.8 | 58.1
GCCUCACAUGAGGAUCACCCAUGUCAGGAUAUAGGAGACGGUAGCUUUGCUGCCUUCGCUAGAAGGGACUGGCU (puzzle: Exclusion 1) |  |  |  |  | 29.7 | 
CUAGACCGAGGAUAUAUUAUGUGAAACAUGAGGAUCACCCAUGUAAUAUGAUGGAUGUAAAUAGAAGGCGGUCUAG [Mat - Exclusion 5 - JL mod - D29] (puzzle: Exclusion 5) |  |  |  | 31.4 | 53.4 | 23
ACGGUUCUCCUCAGCUACAUGAGGAUCACCCAUGUGACUGAGCAGGAUAUACAUAAGUGCGAAAAGUAGAAGGGCUCGGCGCAC [Xeora] (Eterna round: R96, puzzle: Exclusion NG 3) | 12.2 | 8.75 | 12.7 |  |  | 
GGUGAGAGCAAGGAUAUGCAGAAGUGAGAAAGUGCAGAAGGUGCUACAUGAGGAUCACCCAUGUUGGAUGUGUU [JR_E6_Sub015] (puzzle: Exclusion 6) |  |  |  |  | 34.2 | 
GCUGAAGGGUCGAUUACCAACAUGAGGAUCACCCAUGUUCGGAAUAAUUACAGGUUCGCUCGUCUCGAUGAAAGUCC [Eternabot (L1) Solution 19] (Eterna round: R97, puzzle: Sensor, turn-off variant 1) | 19.3 |  | 21.7 |  |  | 
AAAUAACAAGCAGGAUCCUACAUGAGGAUCACCCAUGUGCUCGUCUUAUAAAGUACUAUCACGAAAGUGAUAGUACA [Sensor 3, v1 - 14] (puzzle: Sensor v3, turn-off variant 1) |  |  |  | 434 | 84.6 | 363
CAGGUCUGAAAGGAUAUCCACGCCUGCGGGCCAGGAGAAGGUUCGACUUGAGGAUCACCCAAGUGCCGAGUCCA [Ervezaar] (Eterna round: R97, puzzle: Exclusion 6) | 33.2 |  | 20.6 |  |  | 
GUAGAGUCAGGAUAUACGAGAUCGAAAGAUCGGCGGUCCAUACAUGAGGAUCACCCAUGUAGAAGGGACUCUAC [Omei mod 5 to Eli's favorate candidate (ch.parushev)] (Eterna round: R97, puzzle: Exclusion 2) | 115 |  | 18.3 |  |  | 
ACAUGAGGAUCACCCAUGUGAACGAAAAGGCUCAUGUAGAGUGAGGAUAUGUGAGACGAACGAGAACAGAAGGCACAAGACAGG [Deportation 1 - Jieux - Exclusion NG 3] (Eterna round: R96, puzzle: Exclusion NG 3) | 20.7 | 19.5 | 35.4 |  |  | 
AGCUGUGGCCGAGGAUAUCUGACUUCAAUAACCGAAAUAUAAUCGGACAUGAGGAUCACCCAUGUAGAGAAGGCGGUCUCAGCA [Eli eng2 - 083] (Eterna round: R96, puzzle: Exclusion NG 2) |  | 12.5 |  |  |  | 
GUGCAGCUAGGAUAUACCGAAUGGGCCGAGCCGAAAAUAUUACAUGAGGAUCACCCAUGUAGAAGGAGCCAAUU [Eternabot (Original) Solution 22] (Eterna round: R97, puzzle: Exclusion 2) | 64.5 |  | 34.7 |  |  | 
AGACCGAUAGCAGGAUAUAGGACGACGAGAGCGCUAGAAGGGCUGACGACAUGAGGAUCACCCAUGUUUUCGUCUCAACAGGCA [Eternabot solution 22] (Eterna round: R96, puzzle: Exclusion NG 1) | 31 | 23.1 | 29.2 |  |  | 
CCCUCACAUGAGGAUCACCCAUGUCAGGAUAUUCGAACGGUGUGUUUUUGGCCAGUUGGAAGAAGGGACAUAAA [Riinesbe] (puzzle: Exclusion 1) |  |  |  |  | 36.2 | 
ACAUGAUCAGGAUAUACAUGAGGAUCACCCAUGUAAAUCAAAAAAAAACUUUCUUUAUGUAGAAGGGAUCUUGU [EX3 270: Random 6] (Eterna round: R96, puzzle: Exclusion 3) | 15.2 | 13.6 | 15.3 |  |  | 
